Three substances from US20250345451A1 can be followed below.

Experiment [1] concerns the target Human TGF-β1 (acrobiosystems, TG1-H421) (human) (UniProt P01137).
Experiment [2] has as its target human PD-L1 on CHO-hPD-L1 cells (human) (UniProt Q9NZQ7). Description: flow cytometry on CHO cells overexpressing human PD-L1, median fluorescence intensity PE-A. In general terms: In flow cytometry, cells or beads pass a laser one at a time.
The target in experiment [3] is Human TGF-β1 (acrobiosystems, TG1-H421) (human) (UniProt P01137). Description: ELISA on coated human TGF-β1, anti-human Fc-HRP, absorbance at 450 nm (top panel). (In general: In an ELISA, binding on a coated surface is turned into a signal by an enzyme label.)
Chain of Human TGF-β1 (acrobiosystems, TG1-H421) (human) (P01137 279-390 limits assumed): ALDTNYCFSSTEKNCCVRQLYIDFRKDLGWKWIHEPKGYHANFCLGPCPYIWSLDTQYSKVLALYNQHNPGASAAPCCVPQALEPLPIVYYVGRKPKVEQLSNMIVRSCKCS
The target of experiment [4] is biotinylated human PD-L1 protein (purchased from AcroBiosystems) (human) (UniProt Q9NZQ7). Kind of experiment: blocking assay by flow cytometry: PD-L1 protein pre-incubated with the sample, binding to human PD-1 on CHO-hPD-1 cells.
Chain of biotinylated human PD-L1 protein (purchased from AcroBiosystems) (human) (Q9NZQ7 19-238 limits assumed): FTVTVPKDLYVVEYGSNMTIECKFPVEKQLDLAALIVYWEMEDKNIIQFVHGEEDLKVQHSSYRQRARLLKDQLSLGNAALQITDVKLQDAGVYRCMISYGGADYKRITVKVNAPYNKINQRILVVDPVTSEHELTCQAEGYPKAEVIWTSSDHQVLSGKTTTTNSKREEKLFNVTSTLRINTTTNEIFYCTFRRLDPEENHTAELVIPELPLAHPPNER
For experiment [5], the target named is Human TGF-β3 (PeproTech, 100-36E) (human) (UniProt P10600). Kind of experiment: ELISA on coated human TGF-β3, anti-human Fc-HRP, absorbance at 450 nm (bottom panel).
Chain of Human TGF-β3 (PeproTech, 100-36E) (human) (P10600 301-412 limits assumed): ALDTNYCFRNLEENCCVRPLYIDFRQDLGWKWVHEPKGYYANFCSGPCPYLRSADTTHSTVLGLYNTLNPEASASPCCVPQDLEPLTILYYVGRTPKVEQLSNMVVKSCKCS
Experiment [6] deals with human PD-L1 on CHO-hPD-L1 cells (human) (UniProt Q9NZQ7). Kind of experiment: flow cytometry on CHO-hPD-L1 cells, PE anti-human IgG-Fc; table under the lower panel prints no unit, concentration axis is in nM.
Chain of human PD-L1 on CHO-hPD-L1 cells (human) (Q9NZQ7 19-290): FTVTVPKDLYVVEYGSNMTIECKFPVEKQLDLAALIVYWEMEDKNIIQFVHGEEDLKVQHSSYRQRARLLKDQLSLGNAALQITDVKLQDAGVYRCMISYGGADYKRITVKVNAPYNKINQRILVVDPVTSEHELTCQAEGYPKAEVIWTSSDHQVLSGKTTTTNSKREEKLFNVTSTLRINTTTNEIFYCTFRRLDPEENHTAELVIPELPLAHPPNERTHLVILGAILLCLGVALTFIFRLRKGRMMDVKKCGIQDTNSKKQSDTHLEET

What is called EC50 (read off the curve) is the concentration needed to bring the measured effect to its halfway point. A high value points to a less potent agent. In the case of M7824, the IC50 (read off the curve) stood at 300 pM in experiment [1] and 4000 pM in experiment [4]. The EC50 (read off the curve) in experiment [2] was 3000 pM; in experiment [3], 1000 pM; in experiment [5], 600 pM.
In experiment [1], TGF-βR2-Fc (Fc fusion) displayed an IC50 (read off the curve) of 400 pM. The EC50 (read off the curve) in experiment [3] was 800 pM; in experiment [5], 600 pM.
Usually EC50 stands for the concentration that produces a half-maximal response. Low readings indicate greater potency, high ones weaker potency. For the substance … (atezolizumab) (antibody), in experiment [6], the half-maximal effective concentration (EC50) was found to be 2270 pM.
